Series [1] deals with HeLa Kyoto. As to the kind of experiment: solubility change mitosis vs G1/S (difference of NP-40 vs SDS log2 ratios) (log2 ratio difference); higher = more soluble in mitosis.
Series [2] deals with HeLa Kyoto. As to the kind of experiment: thermal stability score vs G1/S (z-score of summed log2 fold changes over temperatures); higher = more thermally stable than in G1/S.
Series [3] has as its system HeLa Kyoto. The series can be described thus: solubility in G1/S (NP-40 vs SDS abundance) (log2 ratio); higher = more soluble. The following applies: cell cycle stage: G1/S.
Series [4] has as its system HeLa Kyoto. The series can be described thus: melting temperature (median over replicates), in situ; higher = more thermally stable.
[5] abbreviates: cell cycle stage: early G1 (4.5 h after nocodazole release).
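Wherever melting temperature (median over replicates), in situ is given: HeLa Kyoto cells synchronized by double thymidine or nocodazole block, proteins quantified by TMT10plex mass spectrometry, three independent biological replicates.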
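Wherever solubility change mitosis vs G1/S (difference of NP-40 vs SDS log2 ratios) is given: synchronized HeLa Kyoto cells (double thymidine block for G1/S, nocodazole release for mitosis), protein amounts in NP-40 versus SDS lysates quantified by mass spectrometry, three biological replicates.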
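Wherever solubility in G1/S (NP-40 vs SDS abundance) is given: HeLa Kyoto cells arrested at G1/S by double thymidine block, proteins quantified by TMT10plex mass spectrometry in mild NP-40 versus SDS extracts, three biological replicates.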
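Wherever thermal stability score vs G1/S (z-score of summed log2 fold changes over temperatures) is given: synchronized HeLa Kyoto cells, proteins quantified by TMT10plex mass spectrometry, three biological replicates, mitosis taken 0.5 h after nocodazole release, G1/S directly after double thymidine block.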

For the sequence “METPAAAAPAGSLFPSFLLLACGTLVAALLGAAHRLGLFYQLLHKVDKASVRHGGENVAAVLRAHGVRFIFTLVGGHISPLLVACEKLGIRVVDTRHEVTAVFAADAMARLSGTVGVAAVTAGPGLTNTVTAVKNAQMAQSPILLLGGAASTLLQNRGALQAVDQLSLFRPLCKFCVSVRRVRDIVPTLRAAMAAAQSGTPGPVFVELPVDVLYPYFMVQKEMVPAKPPKGLVGRVVSWYLENYLANLFAGAWEPQPEGPLPLDIPQASPQQVQRCVEILSRAKRPLMVLGSQALLTPTSADKLRAAVETLGVPCFLGGMARGLLGRNHPLHIRENRSAALKKADVIVLAGTVCDFRLSYGRVLSHSSKIIIVNRNREEMLLNSDIFWKPQEAVQGDVGSFVLKLVEGLQGQTWAPDWVEELREADRQKEQTFREKAAMPVAQHLNPVQVLQLVEETLPDNSILVVDGGDFVGTAAHLVQPRGPLRWLDPGAFGTLGVGAGFALGAKLCRPDAEVWCLFGDGAFGYSLIEFDTFVRHKIPVMALVGNDAGWTQISREQVPSLGSNVACGLAYTDYHKAAMGLGARGLLLSRENEDQVVKVLHDAQQQCRDGHPVVVNILIGRTDFRDGSIAV [ILVBL]”, in the series with HeLa Kyoto [1], the “solubility change mitosis (log2)” value was -0.172. Also, the figures for the thermal stability score in the series on HeLa Kyoto [2] (setting [5]) and in the series on HeLa Kyoto [2] (cell cycle stage: mitosis) were 0.852 and -0.0354, respectively. In addition, in the series with HeLa Kyoto [3], the “solubility in G1/S (log2)” value is -0.101. The results for the melting temperature in the series on HeLa Kyoto [4] (cell cycle stage: G1/S) and with HeLa Kyoto [4] (cell cycle stage: mitosis) were 53.2 °C and 53.7 °C, respectively.
In the case of “METVQLRNPPRRQLKKLDEDSLTKQPEEVFDVLEKLGEGSYGSVYKAIHKETGQIVAIKQVPVESDLQEIIKEISIMQQCDSPHVVKYYGSYFKNTDLWIVMEYCGAGSVSDIIRLRNKTLTEDEIATILQSTLKGLEYLHFMRKIHRDIKAGNILLNTEGHAKLADFGVAGQLTDTMAKRNTVIGTPFWMAPEVIQEIGYNCVADIWSLGITAIEMAEGKPPYADIHPMRAIFMIPTNPPPTFRKPELWSDNFTDFVKQCLVKSPEQRATATQLLQHPFVRSAKGVSILRDLINEAMDVKLKRQESQQREVDQDDEENSEEDEMDSGTMVRAVGDEMGTVRVASTMTDGANTMIEHDDTLPSQLGTMVINAEDEEEEGTMKRRDETMQPAKPSFLEYFEQKEKENQINSFGKSVPGPLKNSSDWKIPQDGDYEFLKSWTVEDLQKRLLALDPMMEQEIEEIRQKYQSKRQPILDAIEAKKRRQQNF [STK4]”, the “solubility change mitosis (log2)” value in the series on HeLa Kyoto [1] is -0.0655. Also, the thermal stability score with HeLa Kyoto [2] (setting [5]) turned out to be 0.936; with HeLa Kyoto [2] (cell cycle stage: mitosis), 0.0765. For the same sequence, the “solubility in G1/S (log2)” value in the series on HeLa Kyoto [3] came to 0.283. For the same sequence, the melting temperature was found to be 51.8 °C in the series on HeLa Kyoto [4] (cell cycle stage: G1/S) and 51.5 °C in the series on HeLa Kyoto [4] (cell cycle stage: mitosis).
As for “MEVAANCSLRVKRPLLDPRFEGYKLSLEPLPCYQLELDAAVAEVKLRDDQYTLEHMHAFGMYNYLHCDSWYQDSVYYIDTLGRIMNLTVMLDTALGKPREVFRLPTDLTACDNRLCASIHFSSSTWVTLSDGTGRLYVIGTGERGNSASEKWEIMFNEELGDPFIIIHSISLLNAEEHSIATLLLRIEKEELDMKGSGFYVSLEWVTISKKNQDNKKYEIIKRDILRGKSVPHYAAIEPDGNGLMIVSYKSLTFVQAGQDLEENMDEDISEKIKEPLYYWQQTEDDLTVTIRLPEDSTKEDIQIQFLPDHINIVLKDHQFLEGKLYSSIDHESSTWIIKESNSLEISLIKKNEGLTWPELVIGDKQGELIRDSAQCAAIAERLMHLTSEELNPNPDKEKPPCNAQELEECDIFFEESSSLCRFDGNTLKTTHVVNLGSNQYLFSVIVDPKEMPCFCLRHDVDALLWQPHSSKQDDMWEHIATFNALGYVQASKRDKKFFACAPNYSYAALCECLRRVFIYRQPAPMSTVLYNRKEGRQVGQVAKQQVASLETNDPILGFQATNERLFVLTTKNLFLIKVNTEN [NUDCD1]”, the “solubility change mitosis (log2)” value in the series on HeLa Kyoto [1] is -0.234. For the same sequence, the thermal stability score in the series with HeLa Kyoto [2] (setting [5]) came to 0.569; in the series on HeLa Kyoto [2] (cell cycle stage: mitosis), 0.543. In addition, the “solubility in G1/S (log2)” value with HeLa Kyoto [3] was -0.0356. In addition, the melting temperature with HeLa Kyoto [4] (cell cycle stage: G1/S) came out at 51.5 °C; in the series with HeLa Kyoto [4] (cell cycle stage: mitosis) it was 52.4 °C.
Take “MEVKGKKQFTGKSTKTAQEKNRFHKNSDSGSSKTFPTRKVAKEGGPKVTSRNFEKSITKLGKKGVKQFKNKQQGDKSPKNKFQPANKFNKKRKFQPDGRSDESAAKKPKWDDFKKKKKELKQSRQLSDKTNYDIVVRAKQMWEILRRKDCDKEKRVKLMSDLQKLIQGKIKTIAFAHDSTRVIQCYIQYGNEEQRKQAFEELRDDLVELSKAKYSRNIVKKFLMYGSKPQIAEIIRSFKGHVRKMLRHAEASAIVEYAYNDKAILEQRNMLTEELYGNTFQLYKSADHRTLDKVLEVQPEKLELIMDEMKQILTPMAQKEAVIKHSLVHKVFLDFFTYAPPKLRSEMIEAIREAVVYLAHTHDGARVAMHCLWHGTPKDRKVIVKTMKTYVEKVANGQYSHLVLLAAFDCIDDTKLVKQIIISEIISSLPSIVNDKYGRKVLLYLLSPRDPAHTVREIIEVLQKGDGNAHSKKDTEVRRRELLESISPALLSYLQEHAQEVVLDKSACVLVSDILGSATGDVQPTMNAIASLAATGLHPGGKDGELHIAEHPAGHLVLKWLIEQDKKMKENGREGCFAKTLVEHVGMKNLKSWASVNRGAIILSSLLQSCDLEVANKVKAALKSLIPTLEKTKSTSKGIEILLEKLST [PUM3]”: the “solubility change mitosis (log2)” value in the series with HeLa Kyoto [1] came out at 0.758. Also, the thermal stability score in the series on HeLa Kyoto [2] (setting [5]) amounted to 1.46; with HeLa Kyoto [2] (cell cycle stage: mitosis), 3.65. The “solubility in G1/S (log2)” value in the series on HeLa Kyoto [3] is -1.05. Further, the melting temperature stood at 46.6 °C in the series with HeLa Kyoto [4] (cell cycle stage: G1/S) and 50 °C in the series with HeLa Kyoto [4] (cell cycle stage: mitosis).
With “MEVKPPPGRPQPDSGRRRRRRGEEGHDPKEPEQLRKLFIGGLSFETTDDSLREHFEKWGTLTDCVVMRDPQTKRSRGFGFVTYSCVEEVDAAMCARPHKVDGRVVEPKRAVSREDSVKPGAHLTVKKIFVGGIKEDTEEYNLRDYFEKYGKIETIEVMEDRQSGKKRGFAFVTFDDHDTVDKIVVQKYHTINGHNCEVKKALSKQEMQSAGSQRGRGGGSGNFMGRGGNFGGGGGNFGRGGNFGGRGGYGGGGGGSRGSYGGGDGGYNGFGGDGGNYGGGPGYSSRGGYGGGGPGYGNQGGGYGGGGGYDGYNEGGNFGGGNYGGGGNYNDFGNYSGQQQSNYGPMKGGSFGGRSSGSPYGGGYGSGGGSGGYGSRRF [HNRNPA3]”, the “solubility change mitosis (log2)” value in the series on HeLa Kyoto [1] was 0.411. In addition, the thermal stability score was found to be 2.6 with HeLa Kyoto [2] (setting [5]) and 4.71 with HeLa Kyoto [2] (cell cycle stage: mitosis). Besides, the “solubility in G1/S (log2)” value with HeLa Kyoto [3] was -0.252. Moreover, the melting temperature in the series on HeLa Kyoto [4] (cell cycle stage: G1/S) was 47.8 °C; in the series on HeLa Kyoto [4] (cell cycle stage: mitosis), 49.3 °C.
As for “MEVSGPEDDPFLSQLHQVQCPVCQQMMPAAHINSHLDRCLLLHPAGHAEPAAGSHRAGERAKGPSPPGAKRRRLSESSALKQPATPTAAESSEGEGEEGDDGGETESRESYDAPPTPSGARLIPDFPVARSSSPGRKGSGKRPAAAAAAGSASPRSWDEAEAQEEEEAVGDGDGDGDADADGEDDPGHWDADAAEAATAFGASGGGRPHPRALAAEEIRQMLQGKPLADTMRPDTLQDYFGQSKAVGQDTLLRSLLETNEIPSLILWGPPGCGKTTLAHIIASNSKKHSIRFVTLSATNAKTNDVRDVIKQAQNEKSFFKRKTILFIDEIHRFNKSQQDTFLPHVECGTITLIGATTENPSFQVNAALLSRCRVIVLEKLPVEAMVTILMRAINSLGIHVLDSSRPTDPLSHSSNSSSEPAMFIEDKAVDTLAYLSDGDARAGLNGLQLAVLARLSSRKMFCKKSGQSYSPSRVLITENDVKEGLQRSHILYDRAGEEHYNCISALHKSMRGSDQNASLYWLARMLEGGEDPLYVARRLVRFASEDIGLADPSALTQAVAAYQGCHFIGMPECEVLLAQCVVYFARAPKSIEVYSAYNNVKACLRNHQGPLPPVPLHLRNAPTRLMKDLGYGKGYKYNPMYSEPVDQEYLPEELRGVDFFKQRRC [WRNIP1]”, in the series with HeLa Kyoto [1], the “solubility change mitosis (log2)” value was -0.0694. In addition, the values for the thermal stability score with HeLa Kyoto [2] (setting [5]) and in the series with HeLa Kyoto [2] (cell cycle stage: mitosis) were 2.61 and 5.06, respectively. Further, the “solubility in G1/S (log2)” value in the series with HeLa Kyoto [3] turned out to be 0.228. Further, the melting temperature with HeLa Kyoto [4] (cell cycle stage: G1/S) came out at 47.5 °C; with HeLa Kyoto [4] (cell cycle stage: mitosis), 49.3 °C.
“MFCVTPPELETKMNITKGGLVLFSANSNSSCMELSKKIAERLGVEMGKVQVYQEPNRETRVQIQESVRGKDVFIIQTVSKDVNTTIMELLIMVYACKTSCAKSIIGVIPYFPYSKQCKMRKRGSIVSKLLASMMCKAGLTHLITMDLHQKEIQGFFNIPVDNLRASPFLLQYIQEEIPDYRNAVIVAKSPASAKRAQSFAERLRLGIAVIHGEAQDAESDLVDGRHSPPMVRSVAAIHPSLEIPMLIPKEKPPITVVGDVGGRIAIIVDDIIDDVDSFLAAAETLKERGAYKIFVMATHGLLSSDAPRRIEESAIDEVVVTNTIPHEVQKLQCPKIKTVDISMILSEAIRRIHNGESMSYLFRNIGLDD [PRPSAP2]”: the “solubility change mitosis (log2)” value in the series on HeLa Kyoto [1] is -0.121. Also, the thermal stability score in the series with HeLa Kyoto [2] (setting [5]) is -0.303; in the series on HeLa Kyoto [2] (cell cycle stage: mitosis), -0.671. The “solubility in G1/S (log2)” value with HeLa Kyoto [3] was determined as 0.117. The melting temperature in the series on HeLa Kyoto [4] (cell cycle stage: G1/S) amounted to 57.5 °C; in the series on HeLa Kyoto [4] (cell cycle stage: mitosis), 57.4 °C.

Values taken from the supplement of paper PMC5998384.
